± gives the standard deviation of the averaged measurements.
System: ATP
Experiment: switch fluorescence ratio, 500 uM ATP over buffer (Cy3 cluster intensity, sum of 5 cycles each) (fold (ratio)); higher = stronger signal-on switching upon ATP binding; sequences stand for … in TCGTCGGCAGCGTCAGATGTGTATAAGAGACAGTTTTTTTTTTTTTTTTTTTTTTTTT…TC
Settings: aptamer strand: ATP DNA aptamer (quencher-CACCTGGGGGAGTATTGCGGAGGAAGG + anchor), 100 nM annealed; ATP concentration: 500 uM
Outline: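 Exposure to 500 uM ATP lasted 15 min at 22 °C before imaging, and a selection-buffer image was taken beforehand, for Cy3-labelled switching-strand clusters on a modified Illumina MiSeq flow-cell annealed to 100 nM quencher-labelled ATP aptamer. Five buffer/ATP cycles were run with NaOH stripping and re-annealing between them. The fluorescence ratio per cluster is summed target-cycle over summed buffer-cycle Cy3 intensity, averaged per switch-domain sequence. Clusters outside 100-1000 RFU were excluded.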

Row | Sequence | switch fluorescence ratio
1 | TCGTGTTGTT | 0.969 ± 0.021
2 | TCGTGTTTTT | 1.01 ± 0.013
3 | TCGTTAAACT | 1.02 ± 0.011
4 | TCGTTAATGG | 1.004 ± 0.0049
5 | TCGTTCGAGG | 0.958 ± 0.013
6 | TCGTTGAACG | 0.973 ± 0.03
7 | TCGTTGAGTG | 1.02 ± 0.056
8 | TCGTTGCGT | 1.01 ± 0.0017
9 | TCGTTGGCGG | 0.951 ± 0.019
10 | TCGTTGGGGA | 1 ± 0.018
11 | TCGTTGGGTG | 0.994 ± 0.015
12 | TCGTTGGTTT | 0.994 ± 0.021
13 | TCGTTGTGTG | 0.981 ± 0.019
14 | TCGTTTCATA | 0.9784 ± 0.0036
15 | TCGTTTGTGG | 1.04 ± 0.013
16 | TCGTTTTAGT | 0.985 ± 0.014
17 | TCGTTTTGTT | 0.975 ± 0.051
18 | TCGTTTTTAT | 0.983 ± 0.023
19 | TCTAAAAAGG | 0.998 ± 0.025
20 | TCTAAAATTT | 1.15 ± 0.18
21 | TCTAAAGTGT | 0.983 ± 0.0088
22 | TCTAAGGGGA | 1.06 ± 0.11
23 | TCTAAGTGAG | 1.02 ± 0.016
24 | TCTAAGTTA | 0.998 ± 0.012
25 | TCTAATGAGG | 1.006 ± 0.0063

Row | Sequence | switch fluorescence ratio
26 | TCTAATGTGG | 0.983 ± 0.043
27 | TCTAATTCAA | 0.996 ± 0.018
28 | TCTACTGGGG | 0.994 ± 0.029
29 | TCTAGGACGG | 1 ± 0.017
30 | TCTAGGCGTC | 1.07 ± 0.031
31 | TCTAGGGCAA | 1.66 ± 0.086
32 | TCTAGTCCGA | 1.003 ± 0.009
33 | TCTAGTGGGG | 1.01 ± 0.028
34 | TCTAGTGGTA | 0.9893 ± 0.0096
35 | TCTATAAATA | 0.985 ± 0.022
36 | TCTATATGGG | 0.99 ± 0.011
37 | TCTATGATAG | 0.971 ± 0.013
38 | TCTCAAAAAT | 1.1 ± 0.025
39 | TCTCACATCG | 1.01 ± 0.024
40 | TCTCAGTAGG | 1.02 ± 0.013
41 | TCTCAGTCCA | 1.02 ± 0.039
42 | TCTCCGAGTG | 1.45 ± 0.17
43 | TCTCCGGGGA | 1.2077 ± 0.0006
44 | TCTCGAGGGG | 1 ± 0.019
45 | TCTCGCCAAG | 1.06 ± 0.019
46 | TCTCGCCTTT | 0.975 ± 0.066
47 | TCTCGGCTGG | 0.9962 ± 0.001
48 | TCTCTGGATG | 1.02 ± 0.013
49 | TCTCTGTAGG | 1.03 ± 0.037
50 | TCTCTGTCGG | 1.05 ± 0.011

Row | Sequence | switch fluorescence ratio
51 | TCTCTGTCTC | 1.12 ± 0.097
52 | TCTCTTATGA | 0.997 ± 0.011
53 | TCTCTTGGGA | 1.03 ± 0.024
54 | TCTGAAAATG | 0.998 ± 0.012
55 | TCTGAAATTC | 1.15 ± 0.055
56 | TCTGAAATTT | 0.9727 ± 0.0067
57 | TCTGACAATC | 1.91 ± 0.24
58 | TCTGACGTA | 1.04 ± 0.0091
59 | TCTGAGGGGA | 1.02 ± 0.055
60 | TCTGATAGTT | 0.998 ± 0.021
61 | TCTGATGGTG | 1.06 ± 0.039
62 | TCTGATGTGA | 1.08 ± 0.044
63 | TCTGATGTTT | 1.01 ± 0.021
64 | TCTGCTAAAA | 0.973 ± 0.041
65 | TCTGGAATAA | 1.66 ± 0.057
66 | TCTGGCCGCG | 1.015 ± 0.0075
67 | TCTGGGAATA | 1.04 ± 0.023
68 | TCTGGGCCTT | 0.999 ± 0.023
69 | TCTGGGGAGG | 1 ± 0.02
70 | TCTGGGGGT | 0.949 ± 0.02
71 | TCTGGGGTGG | 1.16 ± 0.21
72 | TCTGGGGTTT | 1.03 ± 0.051
73 | TCTGGGTGAA | 1.03 ± 0.081
74 | TCTGGTTAGT | 1.01 ± 0.066
75 | TCTGGTTTTG | 0.984 ± 0.043

Row | Sequence | switch fluorescence ratio
76 | TCTGTAGGTG | 1.07 ± 0.046
77 | TCTGTAGTGG | 1.03 ± 0.014
78 | TCTGTATCCG | 0.984 ± 0.015
79 | TCTGTATGTA | 1.01 ± 0.026
80 | TCTGTCCAGC | 0.9775 ± 0.0046
81 | TCTGTCCTTT | 0.9708 ± 0.0028
82 | TCTGTGACTA | 1.06 ± 0.044
83 | TCTGTGATCT | 1.01 ± 0.021
84 | TCTGTTAAT | 1.11 ± 0.18
85 | TCTGTTTGTT | 1.015 ± 0.01
86 | TCTGTTTTTT | 0.989 ± 0.01
87 | TCTTACGGGG | 1.003 ± 0.01
88 | TCTTAGCATA | 1.18 ± 0.13
89 | TCTTAGCGCG | 1.07 ± 0.041
90 | TCTTAGGACG | 0.997 ± 0.036
91 | TCTTAGGTGG | 1.05 ± 0.016
92 | TCTTAGTAGT | 0.986 ± 0.028
93 | TCTTATAATA | 0.988 ± 0.032
94 | TCTTATAATT | 1.01 ± 0.011
95 | TCTTATTCAA | 0.98 ± 0.012
96 | TCTTATTGCT | 0.96 ± 0.045
97 | TCTTATTGGT | 1.01 ± 0.013
98 | TCTTCACGTC | 1.003 ± 0.0029
99 | TCTTCACTAC | 1.25 ± 0.06
100 | TCTTCATGCG | 1.07 ± 0.053
